How the values were obtained:
[1] = molecular target: T1, ToH1 peptide of Asa1 (Enterococcus faecalis), […] (Enterococcus faecalis); assay: ELISA on ToH1 peptides (FIG.10B)
[2] = molecular target: T2, ToH1 peptide of OmpA (Bacteroidales), SFELPTI (Bacteroidales); assay: ELISA on ToH1 peptides (FIG.10B)
T2 construct: also called OmpA ToH1 peptide

[3] = molecular target: T3, ToH1 peptide of LptF (E. coli), SPEKPTV (E. coli); assay: ELISA on ToH1 peptides (FIG.10B)
T3 construct: also called LptF ToH1 peptide

[4] = molecular target: T4, ToH1 peptide of BmpC (Borrelia burgdorferi), SYERPDI (Borrelia burgdorferi); assay: ELISA on ToH1 peptides (FIG.10B)
T4 construct: also called BmpC ToH1 peptide

[5] = molecular target: T5, ToH1 peptide of HyR3 (Candida albicans), TFEPPVV (Candida albicans); assay: ELISA on ToH1 peptides (FIG.10B)
T5 construct: also called HyR3 ToH1 peptide

[6] = molecular target: T1, ToH1 peptide of Asa1 (Enterococcus …); assay: ELISA on ToH1 peptides (FIG.10A)
[7] = molecular target: T2, ToH1 peptide of OmpA (Bacteroidales), …; assay: ELISA on ToH1 peptides (FIG.10A)
[8] = molecular target: T3, ToH1 peptide of LptF (E. coli), SPEKPTV; assay: ELISA on ToH1 peptides (FIG.10A)
[9] = molecular target: T4, ToH1 peptide of BmpC (Borrelia …); assay: ELISA on ToH1 peptides (FIG.10A)
[10] = molecular target: T5, ToH1 peptide of HyR3 (Candida …); assay: ELISA on ToH1 peptides (FIG.10A)
[11] = molecular target: T6, E. coli FimH, wild type, on E. coli (BW25113) cells (E. coli, UniProt P08191 22-300); assay: flow cytometry and immunofluorescence of rHMGB1 on E. coli BW25113
T6 construct: whole, on cells; also called WT FimH; ∆FimHWT

Measured: binding result

T6 sequence (P08191 22-300): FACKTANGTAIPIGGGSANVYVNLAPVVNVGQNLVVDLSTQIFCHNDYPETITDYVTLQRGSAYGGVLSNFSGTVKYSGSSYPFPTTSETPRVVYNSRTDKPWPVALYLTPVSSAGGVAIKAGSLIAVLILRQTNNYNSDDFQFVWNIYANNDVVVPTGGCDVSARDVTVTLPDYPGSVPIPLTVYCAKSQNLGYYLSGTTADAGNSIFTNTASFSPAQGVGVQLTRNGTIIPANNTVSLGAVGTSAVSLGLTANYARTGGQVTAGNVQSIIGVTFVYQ

B1: F5 scFv (scFv)
scFv: EVQLVQSGPEVKKPGASVKVSCKASGFIFSNYGIGWVRQAPGQGLEWLGWISGYNGQTNYAQTVQGRVTMTADTSTTTAYMDLRNLRSDDTAIYYCARQSIPYYMDVWGKGTMVTVSSGGGGSGGGGSGGGGSGGGGASDIVMTQSPLSSPVTLGQPASISCRSSQSLVHSNGNTYLSWLHQRPGQPPRLLIYRISNRLSGVPDRFSGSGAGTDFTLKISRVEAEDVGVYYCMQAKQFPVTFGQGTRLEIKGSHHHHHH
notes: also called antibody F5
binds: [1] | [2] | [3] | [4] | [5]

B2: G6 scFv (scFv)
scFv: QVQLQQSGPGLVKPSQTLSLTCAISGDSVSSNSAAWNWIRQSPSRGLEWLGRTYYRSKWYNDYAVSVKSRITINPDTSKNQFSLQLNSVTPEDTAVYYCARRSTWGTFDYWGQGTLVTVSSGGGGSGGGGSGGGGSGGGGASDIVMTQTPDSLAVSLGERATINCKSSQSVLYSSNNKNYLAWYQQKPGQPPKLLIYWASTRESGVPDRFSGSGSGTDFTLTISSLQAEDVAVYYCQQYYALPLTFGGGTKLEIKGSHHHHHH
notes: also called antibody G6
binds: [6] | [7] | [8] | [9] | [10]

B3: Recombinant human HMGB1 (rHMGB1) (ligand)
chain: MGKGDPKKPRGKMSSYAFFVQTCREEHKKKHPDASVNFSEFSKKCSERWKTMSAKEKGKFEDMAKADKARYEREMKTYIPPKGETKKKFKDPNAPKRPPSAFFLFCSEYRPKIKGEHPGLSIGDVAKKLGEMWNNTAADDKQPYEKKAAKLKEKYEKDIAAYRAKGKPDAAKKGVVKAEKSKKKKEEEEDEEDEEDEEEEEDEEDEDEEEDDDDE
notes: also called High mobility group box 1
binds: [11]
